Assay results as given in publication PMC4710668, “Bioactivation of food genotoxicants 5-hydroxymethylfurfural and furfuryl alcohol by sulfotransferases from human, mouse and rat: a comparative study” (Archives of Toxicology, 2014).

B1: mSult1a1 (Mus musculus) (protein)
chain: MEPLRKPLVPVKGIPLIKYFAETMEQLQNFTAWPDDVLISTYPKSGTNWMSEIMDMIYQGGKLDKCGRAPVYARIPFLEFSCPGVPPGLETLKETPAPRIIKTHLPLSLLPQSLLDQKIKVIYVARNAKDVVVSYYNFYKMAKLHPDPGTWESFLENFMDGKVSYGSWYQHVKEWWELRRTHPVLYLFYEDMKENPKREIKKILEFLGRSLPEETVDLIVHHTSFKKMKENPMANYTTIPTEVMDHTIYPFMRKGTIGDWKNTFTVAQSEHFDAHYAKLMTGCDFTFRCQI
notes: made in house; host or cells: Salmonella typhimurium TA1538 (cytosolic fraction, enzyme not purified)
B2: hSULT1A2 (Homo sapiens) (protein)
chain: MELIQDISRPPLEYVKGVPLIKYFAEALGPLQSFQARPDDLLISTYPKSGTTWVSQILDMIYQGGDLEKCHRAPIFMRVPFLEFKVPGIPSGMETLKNTPAPRLLKTHLPLALLPQTLLDQKVKVVYVARNAKDVAVSYYHFYHMAKVYPHPGTWESFLEKFMAGEVSYGSWYQHVQEWWELSRTHPVLYLFYEDMKENPKREIQKILEFVGRSLPEETVDLMVEHTSFKEMKKNPMTNYTTVRREFMDHSISPFMRKGMAGDWKTTFTVAQNERFDADYAKKMAGCSLSFRSEL
notes: made in house; host or cells: Salmonella typhimurium TA1538 (cytosolic fraction, not purified)
B3: hSULT1A3 (Homo sapiens) (protein)
chain: MELIQDTSRPPLEYVKGVPLIKYFAEALGPLQSFQARPDDLLINTYPKSGTTWVSQILDMIYQGGDLEKCNRAPIYVRVPFLEVNDPGEPSGLETLKDTPPPRLIKSHLPLALLPQTLLDQKVKVVYVARNPKDVAVSYYHFHRMEKAHPEPGTWDSFLEKFMAGEVSYGSWYQHVQEWWELSRTHPVLYLFYEDMKENPKREIQKILEFVGRSLPEETMDFMVQHTSFKEMKKNPMTNYTTVPQELMDHSISPFMRKGMAGDWKTTFTVAQNERFDADYAEKMAGCSLSFRSEL
notes: as for B2
B4: mSult1d1 (Mus musculus) (protein)
chain: MDNKLDVFRRELVDVEGIPLFWSIAEHWSQVESFEARPDDILISTYPKSGTTWVSEILDLIYNNGDAEKCKRDAIYKRVPFMELIIPGITNGVEMLNNMPSPRIVKTHLPVQLLPSSFWKNDCKIIYVARNAKDVVVSYYYFYQMAKIHPEPGTWEEFLEKFMAGQVSFGPWYDHVKSWWEKRKEYRILYLFYEDMKENPKCEIQKILKFLEKDIPEEILNKILYHSSFSVMKENPSANYTTMMKEEMDHSVSPFMRKGISGDWKNQFTVAQYEKFEEDYVKKMEDSTLKFRSEI
notes: as for B1
B5: hSULT1C2 (Homo sapiens) (protein)
chain: MALHDMEDFTFDGTKRLSVNYVKGILQPTDTCDIWDKIWNFQAKPDDLLISTYPKAGTTWTQEIVELIQNEGDVEKSKRAPTHQRFPFLEMKIPSLGSGLEQAHAMPSPRILKTHLPFHLLPPSLLEKNCKIIYVARNPKDNMVSYYHFQRMNKALPAPGTWEEYFETFLAGKVCWGSWHEHVKGWWEAKDKHRILYLFYEDMKKNPKHEIQKLAEFIGKKLDDKVLDKIVHYTSFDVMKQNPMANYSSIPAEIMDHSISPFMRKGAVGDWKKHFTVAQNERFDEDYKKKMTDTRLTFHFQF
notes: as for B2
B6: hSULT1A1 (Homo sapiens) (protein)
chain: MELIQDTSRPPLEYVKGVPLIKYFAEALGPLQSFQARPDDLLISTYPKSGTTWVSQILDMIYQGGDLEKCHRAPIFMRVPFLEFKAPGIPSGMETLKDTPAPRLLKTHLPLALLPQTLLDQKVKVVYVARNAKDVAVSYYHFYHMAKVHPEPGTWDSFLEKFMVGEVSYGSWYQHVQEWWELSRTHPVLYLFYEDMKENPKREIQKILEFVGRSLPEETVDFVVQHTSFKEMKKNPMTNYTTVPQEFMDHSISPFMRKGMAGDWKTTFTVAQNERFDADYAEKMAGCSLSFRSEL
notes: as for B2
B7: rSult1c1 (Rattus norvegicus) (protein)
chain: MSLEKMKDLHLGEQDLQPETREVNGILMSKLMSDNWDKIWNFQAKPDDLLIATYAKAGTTWTQEIVDMIQNDGDVQKCQRANTYDRHPFIEWTLPSPLNSGLDLANKMPSPRTLKTHLPVHMLPPSFWKENSKIIYVARNAKDCLVSYYYFSRMNKMLPDPGTLGEYIEQFKAGKVLWGSWYDHVKGWWDVKDQHRILYLFYEDMKEDPKREIKKIAKFLEKDISEEVLNKIIYHTSFDVMKENPMANYTTLPSSIMDHSISPFMRKGMPGDWKNYFTVAQSEDFDEDYRRKMAGSNITFRTEI
notes: as for B1
B8: rSult1a1 (Rattus norvegicus) (protein)
chain: MEFSRPPLVHVKGIPLIKYFAETIGPLQNFTAWPDDLLISTYPKSGTTWMSEILDMIYQGGKLEKCGRAPIYARVPFLEFKCPGVPSGLETLEETPAPRLLKTHLPLSLLPQSLLDQKVKVIYIARNAKDVVVSYYNFYNMAKLHPDPGTWDSFLENFMDGEVSYGSWYQHVKEWWELRHTHPVLYLFYEDIKENPKREIKKILEFLGRSLPEETVDSIVHHTSFKKMKENCMTNYTTIPTEIMDHNVSPFMRKGTTGDWKNTFTVAQNERFDAHYAKTMTDCDFKFRCEL
notes: as for B1

Key:
Assay in all cases: HMF sulfoconjugation assay
Details in all cases: other: catalytic efficiency of HMF sulfoconjugation; pH 7.4
[1] = substrate: O=Cc1ccc(CO)o1; format: biochemical, mouse
Experimental: (§1) Cytosolic fractions containing individual SULT forms were prepared from transgenic S. typhimurium TA1538. Table S1 in the Supplementary Material provides a summary of the thirty SULTs used in the current study together with references describing the cloning of the respective S. typhimurium TA1538 strains. The expressed SULT forms are denoted with the prefixes h, m and r for human, mouse and rat enzymes, respectively. Bacteria were grown in Luria Broth medium containing ampicillin (100 µg/ml) by stirring for 8 h at 200 revolutions/min at 37 °C. The bacterial suspensions were centrifuged at 5,000 g for 10 min. […] The protein concentrations were determined according to a bicinchoninic acid (BCA) assay protocol. […]
(§2) The reactions were conducted in mixtures of 100 µl containing 25–200 µg protein, 50 mM potassium phosphate buffer (pH 7.4), 5 mM MgCl2, 50 µM PAPS and different concentrations of HMF at 37 °C. Preliminary experiments ensured that measurements were recorded under ‘linear’ conditions, i.e., doubling of protein concentration or incubation time was doubling the amount of sulfate ester formed. […]
(§3) SMF concentrations of the clear supernatants were analyzed by UPLC-MS/MS. The protocol was adapted from the quantification of SMF in plasma samples of HMF-treated mice (Monien et al. [2009]). […]

[2] = substrate: O=Cc1ccc(CO)o1; format: biochemical, human
Experimental: Cytosolic fractions containing individual SULT forms were prepared from transgenic S. typhimurium TA1538. Table S1 in the Supplementary Material provides a summary of the thirty SULTs used in the current study together with references describing the cloning of the respective S. typhimurium TA1538 strains. The expressed SULT forms are denoted with the prefixes h, m and r for human, mouse and rat enzymes, respectively. Bacteria were grown in Luria Broth medium containing ampicillin (100 µg/ml) by stirring for 8 h at 200 revolutions/min at 37 °C. The bacterial suspensions were centrifuged at 5,000 g for 10 min. The sediments were washed twice with 25 ml of 10 mM potassium phosphate buffer (pH 7.4)/50 mM potassium chloride (KCP buffer) and centrifuged again. The pellets were taken up in 800 µl KCP buffer and sonicated thrice for 15 s with 30 s pauses in between. The soluble fraction was attained by centrifuging for 1 h at 100,000 g. The supernatants (in the following termed cytosolic preparations) were frozen at −80 °C. The protein concentrations were determined according to a bicinchoninic acid (BCA) assay protocol. The SULT concentrations in the cytosolic preparations were estimated after electrophoretic separation and immunodetection using inclusion bodies of different SULT forms as standards (Teubner et al. [2007]). The preparation of SULT inclusion bodies and the immunodetection of SULTs is described in the Supplementary Material, which also contains a representative immunoblot of different amounts of rSult1a1standard and a cytosolic preparation of S. typhimurium expressing rSult1a1 (Fig. S1).
as §2
SMF concentrations of the clear supernatants were analyzed by UPLC-MS/MS. The protocol was adapted from the quantification of SMF in plasma samples of HMF-treated mice (Monien et al. [2009]). In short, the supernatants were analyzed using a UPLC system (Waters) connected to a Quattro Premier XE tandem quadrupole mass spectrometer (Waters) using the negative electrospray ionization mode. […] The fragmentation reactions of SMF yielding two principal ions, the sulfate ion radical (m/z = 204.9 → 96.0) and the protonated sulfonate ion (m/z = 204.9 → 81.0) were monitored. […] SMF was quantified using an external calibration line that was linear in the concentration range of 1.0 nM (4 fmol/injection) to 2,500 (10 pmol/injection) SMF (r ^2 ≥ 0.99). […]

[3] = substrate: O=Cc1ccc(CO)o1; format: biochemical, rat
Experimental: as §1, §2, §3

Protein	kcat/Km [2]	also measured
B1		kcat/Km [1]: 15.8 M⁻¹ s⁻¹
B2	0.71 M⁻¹ s⁻¹	
B3	0.26 M⁻¹ s⁻¹	
B4		kcat/Km [1]: 4.8 M⁻¹ s⁻¹
B5	0.73 M⁻¹ s⁻¹	
B6	13.7 M⁻¹ s⁻¹	
B7		kcat/Km [3]: 0.12 M⁻¹ s⁻¹
B8		kcat/Km [3]: 5.3 M⁻¹ s⁻¹
